Tests used:
MutS (TaqMutS) [1] = biological target: T1, MutS (TaqMutS) (Thermus aquaticus, UniProt Q56215 Q56215:1-811); conditions: error frequency 1/212 to 1/1593; 500 nM MutS, 40 nM DNA, 60 C
T1 sequence: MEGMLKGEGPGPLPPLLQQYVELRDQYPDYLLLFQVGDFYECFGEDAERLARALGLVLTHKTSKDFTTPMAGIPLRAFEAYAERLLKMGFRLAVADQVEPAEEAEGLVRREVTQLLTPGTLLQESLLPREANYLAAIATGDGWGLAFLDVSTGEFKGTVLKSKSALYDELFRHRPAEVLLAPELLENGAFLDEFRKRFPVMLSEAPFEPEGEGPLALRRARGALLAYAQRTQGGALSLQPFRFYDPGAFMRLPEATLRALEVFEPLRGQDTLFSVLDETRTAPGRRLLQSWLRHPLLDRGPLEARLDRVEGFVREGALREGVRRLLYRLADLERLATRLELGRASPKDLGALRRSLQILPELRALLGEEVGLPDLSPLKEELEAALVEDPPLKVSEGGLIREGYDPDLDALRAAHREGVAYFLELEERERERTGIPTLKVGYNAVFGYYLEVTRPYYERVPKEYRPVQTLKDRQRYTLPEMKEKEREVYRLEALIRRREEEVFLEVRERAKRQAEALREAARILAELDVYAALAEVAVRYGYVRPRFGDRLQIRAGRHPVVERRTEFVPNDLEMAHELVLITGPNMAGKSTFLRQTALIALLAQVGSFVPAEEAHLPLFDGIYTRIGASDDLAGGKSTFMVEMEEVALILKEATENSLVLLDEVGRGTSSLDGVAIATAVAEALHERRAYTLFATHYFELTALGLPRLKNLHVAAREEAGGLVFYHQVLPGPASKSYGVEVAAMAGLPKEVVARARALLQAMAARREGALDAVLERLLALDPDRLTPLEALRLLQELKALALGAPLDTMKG

MutS (TaqMutS) [2] = biological target: T1, MutS (TaqMutS); test: homoduplex recovered in flow-through; white:blue ratio shifted 1:1 to 60:1; conditions: chain copies: 2; perfect duplex
Description: The 410 bp white:blue test heteroduplex was used to determine the best conditions for separation of a model A or T deletion heteroduplex from perfectly matched homoduplex molecules using TaqMutS. A defined ratio of heteroduplex and homoduplex 410 bp fragments were incubated with TaqMutS at 60° C. for 20 minutes and subsequently passed through enzyme removal columns (Micropure-EZ enzyme removers from Millipore). These columns are marketed as quick alternatives to phenol/chloroform methods for removing proteins from DNA. The aim was to retain the TaqMutS protein bound to heteroduplex DNA in the column and retrieve the homoduplex DNA in the flow-through.

Molecule “354 bp synthetic DNA, error-containing population” has an activity (% errors removed) (MutS (TaqMutS) [1]) greater than 85.

B1: 410 bp AflIII/EcoRI homoduplex (pUC121) (dsDNA)
DNA 1: GAAGAGCGCCC
DNA 2: GGGCGCTCTTC
B1: no binding (MutS (TaqMutS) [2]).
